# Measurements as given in paper PMC3695523, “Reconstitution and characterization of eukaryotic N6-threonylcarbamoylation of tRNA using a minimal enzyme system” (Nucleic Acids Research, 2013).
# B1: Sua5 (Saccharomyces cerevisiae S288C) (protein)
# chain: MYLGRHFLAMTSKALFDTKILKVNPLSIIFSPDAHIDGSLPTITDPETEAALVEAARIIRDTDETVAFPTETVYGLGGSALNDNSVLSIYRAKNRPSDNPLITHVSSIDQLNRKVFNQPHLSGTSLFDNIPSIYRPLISSLWPGPLTILLPVPSSEHSALSKLTTADQPTFAVRIPANPVARALIALSDTPIAAPSANASTRPSPTLASHVYHDLKDKIPIILDGGACKVGVESTVVDGLCNPPTLLRPGGFTYEEIVKLGGEAWSLCKVENKKTVEKGEKVRTPGMKYRHYSPSAKVVLLVPHCEGDGILKGVDRMERLKRLIETELKANSNIKKIAILTSLKLRDSDLQSKIFNEPDFSSKTFIIERLGQSGEEIQTNLFAALRKVDENDKVDLIFVEGINEEGEGLAVMNRLRKAAANNCIQF
# notes: full length; N-terminal hexa-histidine or GST tag; expressed in E. coli BL21 (DE3) CodonPlus
# Substrate: C[C@@H](O)[C@H](N)C(=O)O
# Assay: HPLC nucleoside analysis of t6A formed on tRNA-Ile in reconstituted assay
# Type: biochemical, Saccharomyces cerevisiae
# Details: coupled two-enzyme system: Sua5 plus yeast Qri7 (30-407), 2 uM Sua5/Qri7, 20 uM tRNA-Ile, 2 mM ATP, 1 mM NaHCO3, 5 mM MnCl2, 200 mM NaCl, 50 mM Tris-HCl pH 8.0, ambient temperature, 60 min
protein,measurement,value
B1,Km,110 ± 14 nM
